Source: PMC9485624

What was measured:
[1] = molecular target: recombinant truncated CrrB (135-353 amino acids) (Klebsiella pneumoniae); assay: not stated; purified recombinant His-tagged protein after Ni-NTA; how dimer and monomer were told apart is not stated in the text (Supplementary Figure S1)
[2] = molecular target: recombinant truncated CrrB (135-353 amino acids) P151L mutant (Klebsiella pneumoniae); assay: as above

recombinant truncated CrrB (135-353 amino acids) (domain or fragment)
stoichiometry N [1]: 2

recombinant truncated CrrB (135-353 amino acids) P151L mutant (domain or fragment)
stoichiometry N [2]: 2
